Test results taken from patent US20110190477A1 (G2 INFLAMMATION, published 2011).
Where “and” joins values, the source holds several entries; their conditions need not be identical. Equal values may be shown once. No end group written: not given here. *: point of attachment. Biotin = O=C1N[C@H]2[C@H](CS[C@H]2CCCCC(=O)*)N1

T1: peptide A8 (… with Ala at position 6, F4 of the epitope) (human)
T1 construct: The label A8 and position 6 follow from 'Peptides A2-A13 contained a single alanine substitution at each amino acid position from 12 to 1 respectively'
T1 peptide: Biotin-SGSGVREEYAPPKVLC

T2: peptide A9 (… with Ala at position 5, Y3 of the epitope) (human)
T2 construct: The label A9 and position 5 follow from 'Peptides A2-A13 contained a single alanine substitution at each amino acid position from 12 to 1 respectively'
T2 peptide: Biotin-SGSGVREEAFPPKVLC

T3: human C5a receptor (human, UniProt P21730 1-350)
T3 construct: On human neutrophils, L1.2/hC5aR transfectants or neutrophils of hC5aR knock-in mice; also called hC5aR; C5aR1
T3 chain: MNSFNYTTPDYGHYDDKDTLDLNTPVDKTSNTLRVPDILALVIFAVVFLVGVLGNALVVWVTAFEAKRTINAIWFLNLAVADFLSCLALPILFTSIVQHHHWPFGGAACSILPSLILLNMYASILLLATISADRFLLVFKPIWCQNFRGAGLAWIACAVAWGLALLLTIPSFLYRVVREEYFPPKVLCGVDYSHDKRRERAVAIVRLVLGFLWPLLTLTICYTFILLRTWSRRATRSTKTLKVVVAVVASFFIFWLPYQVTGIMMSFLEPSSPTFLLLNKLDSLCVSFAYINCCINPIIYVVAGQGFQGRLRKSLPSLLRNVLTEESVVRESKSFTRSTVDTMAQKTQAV

T4: peptide 2 (12 mer from the 2nd extracellular loop of human C5aR) (human)
T4 construct: worked out from 22 12 mers offset by one over 173-205; also called peptide no
T4 peptide: Biotin-SGSGYRVVREEYFPPK

T5: peptide 7 (12 mer from the 2nd extracellular loop of human C5aR) (human)
T5 construct: worked out from 22 12 mers offset by one over 173-205; also called peptide no
T5 peptide: Biotin-SGSGEEYFPPKVLCGV

T6: peptide 1 (12 mer from the 2nd extracellular loop of human C5aR) (human, not fully specified)
T6 construct: worked out from 22 12 mers offset by one over 173-205; also called peptide no
T6 peptide: Biotin-SGSGLYRVVREEYFPP

T7: peptide 5 (12 mer from the 2nd extracellular loop of human C5aR) (human)
T7 construct: worked out from 22 12 mers offset by one over 173-205; also called peptide no
T7 peptide: Biotin-SGSGVREEYFPPKVLC

T8: peptide 3 (12 mer from the 2nd extracellular loop of human C5aR) (human)
T8 construct: worked out from 22 12 mers offset by one over 173-205; also called peptide no
T8 peptide: Biotin-SGSGRVVREEYFPPKV

T9: peptide 4 (12 mer from the 2nd extracellular loop of human C5aR) (human)
T9 construct: worked out from 22 12 mers offset by one over 173-205; also called peptide no
T9 peptide: Biotin-SGSGVVREEYFPPKVL

T10: peptide 6 (12 mer from the 2nd extracellular loop of human C5aR) (human)
T10 construct: worked out from 22 12 mers offset by one over 173-205; also called peptide no
T10 peptide: Biotin-SGSGREEYFPPKVLCG


Experiments:
[1] = biological target: T1, peptide A8 (… with Ala at position 6, …); experiment: peptide ELISA, alanine-scan peptides
Experimental: (§1) A 384 well streptavidin-coated plate (Nunc) was blocked with 20 μl of blocking buffer (1% w/v BSA in PBS) per well. The plate was washed 4 times with PBS/Tween20 buffer (0.1% v/v Tween 20 in PBS). 20 μl of diluted peptide solution was transferred into a well and the plate incubated for 1 hour at room temperature. After washing the plate 4 times (as above) 20 μl antibody (0.5, 1, 1.25, 2.5 or 5 μg/ml) was added to the well and the plate was incubated for 1 hour at 20° C. The plate was washed 4 times as above then 20 μlHRP-conjugated anti-mouse IgG (1:5000 dilution in PBS/Tween 20) was added to each well. After a 1 hour incubation at room temperature the plate was washed 3 times (as above) then twice with PBS to remove traces of Tween. The presence of peroxidase was detected by adding 20 μl of freshly prepared TMB Substrate reagent (BD Opt EIA) to each well and incubating at room temperature for 20 min. Finally the plate was read at 650 nm/450 nm.
(§2) Peptide A1 had no A1a substitution and peptide A14 was a scrambled version of peptide A1. Peptides A2-A13 contained a single alanine substitution at each amino acid position from 12 to 1 respectively. Binding of antibodies to the peptides coated on ELISA plates was carried out as described above.

[2] = biological target: T2, peptide A9 (… with Ala at position 5, …); experiment: peptide ELISA, alanine-scan peptides
Experimental: as §1, §2

human C5a receptor = biological target: T3, human C5a receptor; experiment: saturation binding to human neutrophils at 4 C, flow cytometry
Experimental: Human neutrophils, isolated as described above, were resuspended in dPBS and 1×10⁵ cells (in 25 μl) were dispensed into wells of a 96-well plate. An equal volume (25 μl) of 2× antibody (diluted in PBS) was added to each well. The final antibody concentration using 2-fold serial dilution ranged from 40 to 0 ug/ml (using unlabelled hAb-Q, hAb-J and 7F3). Cells and antibody were incubated for 20 min times at 4° C. After incubation, 100 μl PBS+1% BCS was added to each well and the plate centrifuged at 2,000 rpm for 3 min. […] The cells were washed once as above and resuspended in PBS+1% FCS for analysis by flow cytometry. FSC v SSC scatter was used to identify neutrophils, with the Median Fluorescence Intensity (MFI) determined for each sample. EC50 values were determined by fitting data (MFI—background vs log₁₀[antibody concentration]) to the sigmoidal dose-response (variable slope) i.e. 4-parameter logistic equation using GraphPad Prism (v4.0) software. Bₘₐₓ and KD were determined by fitting data to the one-site binding hyperbola equation.

[3] = biological target: T4, peptide 2 (12 mer from the 2nd …); experiment: peptide ELISA, biotin peptide on streptavidin plate
From the text: (§3) A set of 22 overlapping peptides (12 mers), each offset by 1 residue from the next, spanning the second extracellular loop (3rd extracellular domain) of human C5aR was synthesised (Mimotopes, Melbourne). Each peptide was made with a biotin group and 4-amino acid linker (SGSG) at its N-terminus. One peptide synthesised, no. 23, was a 33 mer, representing the full length of the 2nd extracellular loop of hC5aR (residues 173-205 from SEQ ID NO:37), also had biotin-SGSG at the N-terminus.
(§4) The experiment was conducted by binding the peptides to a 384-well streptavidin-coated plate then incubating the antibodies with the peptides and detecting bound antibody with an anti-mouse IgG conjugated to horse radish peroxidase (HRP) as follows. Each peptide was dissolved in 200 μl of 60% DMSO to a concentration of 10 mg/ml. Peptides were further diluted 1:1000 to a working strength of 10 μg/ml with PBS/Tween 20/azide solution (0.1% w/v sodium azide in PBS/0.05% Tween 20).
as §1

[4] = biological target: T5, peptide 7 (12 mer from the 2nd …); experiment: as above
From the text: as §3, §4, §1

[5] = biological target: T6, peptide 1 (12 mer from the 2nd …); experiment: as above
From the text: as §3, §4, §1

[6] = biological target: T7, peptide 5 (12 mer from the 2nd …); experiment: as above
From the text: as §3, §4, §1

[7] = biological target: T8, peptide 3 (12 mer from the 2nd …); experiment: as above
From the text: as §3, §4, §1

[8] = biological target: T9, peptide 4 (12 mer from the 2nd …); experiment: as above
From the text: as §3, §4, §1

[9] = biological target: T10, peptide 6 (12 mer from the 2nd …); experiment: as above
From the text: as §3, §4, §1

Row | Binder | binding result [1] | binding result [2] | EC50 (human C5a receptor) | Kd (human C5a receptor) | binding result [3] | binding result [4] | binding result [5] | binding result [6] | binding result [7] | binding result [8] | binding result [9]
1 | humanized anti-C5aR antibody hAb-J (antibody, human IgG4 S228P, kappa, also called antibody J) light: DVVMTQSPLSLPVTLGEPASISCRSSQSLVHSNGNTYLHWYLQKPGQSPQLLIYKVSNRFSGVPDRFSGSGSGTDFTLKISRVEAEDVGVYFCSQSTLVPLTFGQGTKLEIKTVAAPSVFIFPPSDEQLKSGTASVVCLLNNFYPREAKVQWKVDNALQSGNSQESVTEQDSKDSTYSLSSTLTLSKADYEKHKVYACEVTHQGLSSPVTKSFNRGEC heavy: not shown | no binding | no binding |  |  |  |  |  |  |  |  | 
2 | mouse anti-C5aR monoclonal antibody 7F3 (antibody, V domains shown, Mouse monoclonal from hybridoma ECACC 00110609; also called m7F3; mouse 7F3) VH: QVQLQQSGPELVKPGASVKISCKASGYAFSNSWMNWVKQRPGKGLEWIGRIYPGDGDTKYNGKFKGKATLTADKSSSTAYMQLSSLTSEDSAVYFCARFLLISTVTAVDYWGQGTTLTVSS VL: DVVMTQSPLSLPVSLGNQASISCRSSQSLVHSNGNTYLHWYLQKPGQSPKLLIYKVSNRFSGVPDRFSGSGSGTDFSLKISRVEAEDLGVYFCSQSTLVPLTFGAGTKLELK |  |  | 8 to 10 nM | 8 to 10 nM | binds | binds | binds | binds | binds | binds | binds
3 | humanized anti-C5aR antibody hAb-Q (antibody, human IgG4 S228P, kappa, IgG4 with the Ser228Pro mutation; also called antibody Q; anti-C5aR ab) light: DVVMTQSPLSLPVTLGEPASISCRSSQSLVHSNGNTYLHWYLQKPGQSPQLLIYKVSNRFSGVPDRFSGSGSGTDFTLKISRVEAEDVGVYFCSQSTLVPLTFGQGTKLEIKRTVAAPSVFIFPPSDEQLKSGTASVVCLLNNFYPREAKVQWKVDNALQSGNSQESVTEQDSKDSTYSLSSTLTLSKADYEKHKVYACEVTHQGLSSPVTKSFNRGEC heavy: not shown | no binding | no binding | 20 nM to 25 nM (2×) and ~3 µg/mL | 20 nM to 25 nM (2×) and ~3 µg/mL | binds | binds | binds | binds | binds | binds | binds
